For test [1], the target named is mutant outer-arm dynein (OAD) of the Chlamydomonas mutant 214 (oda6E279K), carrying IC2 E279K (Chlamydomonas reinhardtii (endogenous in flagellar axonemes)) (UniProt Q39610).
In test [2] the target is wild-type outer-arm dynein (OAD) of Chlamydomonas (Chlamydomonas reinhardtii (endogenous in flagellar axonemes)) (UniProt Q39610).

Turning to “mutant outer-arm dynein (OAD) of the Chlamydomonas mutant 214 (oda6E279K), carrying IC2 E279K (from UniProt Q39610 1-4499; Q39565 1-4568; Q39575 1-4485; Q39578 1-683; P27766 1-567) (complex)”, the microtubule sliding speed in microtubule bundles formed with OAD, on perfusion with 1 mM ATP in test [1] is 4.3 μm/sec.

As for “wild-type outer-arm dynein (OAD) of Chlamydomonas (from UniProt Q39610 1-4499; Q39565 1-4568; Q39575 1-4485; Q39578 1-683; P27766 1-567) (complex)”, the microtubule sliding speed in microtubule bundles formed with OAD, on perfusion with 1 mM ATP in test [2] is 35.3 μm/sec.

Values taken from PMC11496786.
